The values below come from doi:10.1101/2020.04.25.060004.

This series addresses insulin (human, UniProt P01308;P01308 25-54;90-110). Nature of the series: bead-based flow cytometry. In general terms: In flow cytometry, cells or beads pass a laser one at a time.

Sequence of insulin (P01308 25-54, chain 1 of 2): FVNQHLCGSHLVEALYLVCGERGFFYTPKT
Sequence of insulin (P01308 90-110, chain 2 of 2): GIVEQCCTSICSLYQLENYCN

B1: IGA3 bt (ssDNA)
DNA: GGTGGTGGGGGGGGTTGGTAGGGTGTCTTC
For orientation: Kd means the free concentration of one partner at which half of the binding sites on the other are occupied at equilibrium, for simple one-to-one binding. As for B1, the Kd worked out at 12.7 ± 1.1 µM.
